Tests used:
[1] = biological target: T1, human LSR with a V5/His tag fused to the C-terminal, on the LSR-expressing cell strain (human, UniProt Q86X29 1-649); test: cell panning of the scFv phage library on the LSR-expressing cell strain, reactivity confirmed by FACS, positive phage clones selected
T1 construct: In panning Lot 1 a mammalian LSR-expressing cell strain was used whose construct is not described; also called human LSR-expressing chicken cell strain; not shown: V5/His tag of vector pcDNA3.1-V5/His-TOPO
T1 sequence: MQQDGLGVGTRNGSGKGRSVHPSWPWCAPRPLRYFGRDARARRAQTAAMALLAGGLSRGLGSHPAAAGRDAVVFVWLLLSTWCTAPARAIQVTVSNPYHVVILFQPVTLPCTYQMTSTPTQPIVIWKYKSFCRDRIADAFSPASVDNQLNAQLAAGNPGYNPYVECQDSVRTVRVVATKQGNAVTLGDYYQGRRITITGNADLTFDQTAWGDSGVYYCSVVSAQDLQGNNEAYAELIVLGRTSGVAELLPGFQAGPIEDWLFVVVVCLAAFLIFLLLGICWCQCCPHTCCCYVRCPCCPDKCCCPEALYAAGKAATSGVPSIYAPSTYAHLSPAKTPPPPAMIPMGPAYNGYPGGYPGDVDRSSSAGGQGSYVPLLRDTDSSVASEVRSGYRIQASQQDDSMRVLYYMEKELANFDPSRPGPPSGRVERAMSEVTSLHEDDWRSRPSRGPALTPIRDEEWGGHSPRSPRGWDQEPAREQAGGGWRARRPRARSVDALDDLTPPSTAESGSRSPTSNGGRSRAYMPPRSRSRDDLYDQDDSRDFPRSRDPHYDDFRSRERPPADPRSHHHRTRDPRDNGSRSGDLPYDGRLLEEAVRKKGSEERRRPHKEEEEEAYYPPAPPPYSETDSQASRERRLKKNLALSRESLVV
Protocol: The scFv phage antibody library was added to a non-LSR-expressing cell strain to carry out absorption operation of nonspecific phages, and then was reacted with a LSR-expressing cell strain. In Lot 1, a mammalian cell strain was used and in Lot 2, cell panning was carried out using the chicken lymphoblast-like cell strain used for immunization. After washing with organic solvent, phages specifically binding to the LSR-expressing cell strain were recovered and then *Escherichia coli* were infected with it. Panning was carried out four times and then the reactivity of the library was confirmed by FACS analysis using the LSR-expressing cell strain. Phages from a library of which the reactivity had most increased were cloned, positive clones were selected, and then the sequences of six types of clones were determined (SEQ ID NOs: 1 to 6 and FIG. 9). For cell panning, a method described in "Giordano et al., Nat Med. 2001 November; 7(11): 1249-53" was followed.

[2] = biological target: T2, human LSR (lipolysis stimulated lipoprotein receptor) (human, UniProt Q86X29 1-649); test: FACS on RMG-I cells stained with various antibody concentrations, goat anti-mouse IgG-FITC, fit in GraphPad Prism
T2 construct: Stood on human ovarian cancer cells (RMG-I, OVSAHO, JHOS2, OVISE; endogenous) or on SKOV3-L45 cells made to stably express LSR (construct not described); also called hLSR; human LSR protein (NP_991403.1)
T2 sequence: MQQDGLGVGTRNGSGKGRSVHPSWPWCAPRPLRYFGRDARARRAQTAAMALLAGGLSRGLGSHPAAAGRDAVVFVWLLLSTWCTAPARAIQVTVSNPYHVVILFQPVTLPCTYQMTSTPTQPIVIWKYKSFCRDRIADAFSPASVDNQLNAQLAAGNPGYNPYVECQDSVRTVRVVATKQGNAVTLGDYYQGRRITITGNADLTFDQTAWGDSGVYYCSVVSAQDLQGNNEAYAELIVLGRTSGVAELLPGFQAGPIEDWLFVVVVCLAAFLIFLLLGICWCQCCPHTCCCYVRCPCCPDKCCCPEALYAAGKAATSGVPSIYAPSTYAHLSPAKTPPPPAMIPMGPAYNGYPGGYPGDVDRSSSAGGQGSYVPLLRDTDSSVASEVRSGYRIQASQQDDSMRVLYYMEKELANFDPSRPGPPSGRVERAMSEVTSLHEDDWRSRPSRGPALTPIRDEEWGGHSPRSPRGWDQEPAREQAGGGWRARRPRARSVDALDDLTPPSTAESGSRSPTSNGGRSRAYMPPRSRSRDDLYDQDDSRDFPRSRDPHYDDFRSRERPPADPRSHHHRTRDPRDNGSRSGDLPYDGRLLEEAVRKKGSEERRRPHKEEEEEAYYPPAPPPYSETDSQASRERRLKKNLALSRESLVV
Protocol: Then, using an anti-LSR antibody (#1-25 or #9-7), immunohistochemical staining for LSR was carried out according to the ABC method. In the ovary serous adenocarcinoma tissue and the endometrial cancer tissue, LSR was highly expressed at the tumor sites. Immunohistochemical Staining Using Normal Frozen Tissue Array FDA standard human tissue microarrays (T6234701-2, Biochain) were immunohistochemically stained using the anti-LSR antibody #1-25. […] Calculation of Binding Constant Various concentration of various anti-LSR antibodies were reacted with RMG-I cells and they were stained using goat anti-mouse IgG-FITC (Southern Biotech, Birmingham, Ala., USA) and analyzed by a FACSCanto® II cytometer (Becton Dickinson). With regard to the fluorescence intensity of FITC, a KD value was analyzed using GraphPad Prism® Software Version 6.0 for Windows (GraphPad Software Inc., San Diego, Calif., USA). When the binding ability of the made LSR antibodies was analyzed by FACS®, antibodies having a high binding ability were obtained. The following analysis was carried out using two kinds of clones having the highest binding ability in them (FIG. 37B). […] Cell Cycle Analysis Ovarian clear cell adenocarcinoma (RMG-I) was seeded into a 6-well plate at 15,000 cells/well and incubated in a CO_2 incubator at 37° C. overnight. The culture supernatant was discarded and 100 µg/ml anti-LSR antibody or mouse IgG2a diluted with RPMI 1640 medium (containing 1% FBS and 1% penicillin-streptomycin) was added at 2 mL/well for each. After 96 hours, cell cycle analysis was carried out using the Cycle Test Plus® DNA Reagent kits (BD Biosciences). Western Blot Ovarian clear cell adenocarcinoma (RMG-I) was seeded into a 6-well plate at 15,000 cells/well and incubated in a CO_2 incubator at 37° C. overnight. The culture supernatant was discarded and 100 µg/ml anti-LSR antibody or mouse IgG2a diluted with RPMI 1640 medium (containing 1% FBS and 1% penicillin-streptomycin) was added at 2 mL/well for each.

B1: SEQ ID NO 4 (scFv phage antibody clone, anti-LSR antibody 27-6 sequence) (scFv)
scFv: AVTLDESGGGLQMPGGALSLVCRASGFDFSSYEMQWIRQAPGKGLEWVAGISGAGSGTRYGSAVKGRATISRDNGQSTVRLQLNNLRAEDTGIYFCARSSNIDAWGHGTEVTVSTGGGGSGGGGSGGGGSDVALTQPASVSANLGGTVKITCSGGGRYAESYYYGWYQQKSPGSTPVTVIYWNDKRPSNIPSRFSGSLSGSTNTLTITGVQVEDEAVYFCGSYEDSRSAFGAGTTLTV
notes: the phage coat protein fusion is not described; also called 27-6 scFv
- binding result [1]: binds

B2: anti-LSR mouse/chicken chimeric monoclonal antibody #9-7 (antibody, V domains shown)
VH: AVTLDESGGGLQTPGGALSLVCKASGFTFSDYQMNWVRQAPSKGLEWVAGINGRSSWTDYGAAVKGRATISRDNGQSTVRLQLNNLRAEDTATYYCARGSSIDAWGHGTEVIVST
VL: ALTQPASVSANPGETVKITCSGGGSYYGSYYYGWYQQKSPGSAPVTMIYNNNNRPSNIPSRFSGSLSGSTNTLTITGVQADEAVYYCGSIDSNIAGVFGAGTTLTV
notes: also called anti-LSR antibody 9-7
- Kd [2]: 2.52 nM

B3: SEQ ID NO 3 (scFv phage antibody clone, anti-LSR antibody 26-2 sequence) (scFv)
scFv: AVTLDESGGGLQTPGGGLSLVCKGSGFTFSNYEMQWVRQAPGKGLEWVAGISGAGSTTRYGSAVQGRATISRDNGQSTVRLQLNNLRAEDTGTYYCARGSNIDGWGHGTEVIVSTGGGGSGGGGSGGGGSDVALTQPSSVSANPGETVKITCSGGGRYAESYYYSWFQQKSPGSAPVTVIYWNDKRPSNIPSRFSGSLSGSTNTLTITGVRAEDEAVYYCGAYEDSSAGFGAGTTLTV
notes: the phage coat protein fusion is not described; also called 26-2 scFv
- binding result [1]: binds

B4: anti-LSR mouse/chicken chimeric monoclonal antibody #1-25 (antibody, V domains shown)
VH: AVTLDESGGGLQTPGGALSLVCKASGFDFSSYEMQWVRQAPGKGLEWVTGISGSGSSTRYGSAVKGRATISRDNGQSTVRLQLNNLRAEDTGTYYCARGSTIDAWGHGTEVTVST
VL: ALTQPASVSANPGETVKITCSGGSSYAGSYYYGWYQQKSPGSAPVTVIYYNDQRPSDIPSRFSGSTSGSTATLTITGVQVEDEAVYICGTYEDSGGVFGAGTTLTV
notes: also called No. 1-25; anti-LSR antibody 1-25
- Kd [2]: 2.03 nM

B5: anti-LSR mouse/chicken chimeric monoclonal antibody #1-43 (antibody, V domains shown)
VH: AVTLDESGGGLQTPGGALSLVCEASGFDFSSHEMQWVRQAPGKGLEWVAGISGAGSSTRYGSAVQGRATISRDNGQSTVRLQLNNLRAEDTGTYYCARGSLIDAWGHGTEVIVST
VL: ALTQPASVSANPGETVKITCSGGGSYYGSYYYSWHQQKSPGSAPVTVIYENNQRPSDIPSRFSGSKSGSTATLTITGVQAEDEAVYFCGSYDSSAGLFGAGTTLTV
notes: also called No. 1-43; anti-LSR antibody 1-43
- Kd [2]: 24.6 nM

B6: anti-LSR mouse/chicken chimeric monoclonal antibody #27-6 (antibody, V domains shown)
VH: AVTLDESGGGLQMPGGALSLVCRASGFDFSSYEMQWIRQAPGKGLEWVAGISGAGSGTRYGSAVKGRATISRDNGQSTVRLQLNNLRAEDTGIYFCARSSNIDAWGHGTEVTVST
VL: ALTQPASVSANLGGTVKITCSGGGRYAESYYYGWYQQKSPGSTPVTVIYWNDKRPSNIPSRFSGSLSGSTNTLTITGVQVEDEAVYFCGSYEDSRSAFGAGTTLTV
notes: also called No. 27-6; anti-LSR antibody 27-6
- Kd [2]: 4.29 nM

B7: SEQ ID NO 6 (scFv phage antibody clone, anti-LSR antibody 1-43 sequence) (scFv)
scFv: AVTLDESGGGLQTPGGALSLVCEASGFDFSSHEMQWVRQAPGKGLEWVAGISGAGSSTRYGSAVQGRATISRDNGQSTVRLQLNNLRAEDTGTYYCARGSLIDAWGHGTEVIVSTGGGGSGGGGSGGGGSDVALTQPASVSANPGETVKITCSGGGSYYGSYYYSWHQQKSPGSAPVTVIYENNQRPSDIPSRFSGSKSGSTATLTITGVQAEDEAVYFCGSYDSSAGLFGAGTTLTV
notes: the phage coat protein fusion is not described; also called 1-43 scFv
- binding result [1]: binds

B8: anti-LSR mouse/chicken chimeric monoclonal antibody #26-2 (antibody, V domains shown)
VH: AVTLDESGGGLQTPGGGLSLVCKGSGFTFSNYEMQWVRQAPGKGLEWVAGISGAGSTTRYGSAVQGRATISRDNGQSTVRLQLNNLRAEDTGTYYCARGSNIDGWGHGTEVIVST
VL: ALTQPSSVSANPGETVKITCSGGGRYAESYYYSWFQQKSPGSAPVTVIYWNDKRPSNIPSRFSGSLSGSTNTLTITGVRAEDEAVYYCGAYEDSSAGFGAGTTLTV
notes: also called No. 26-2; anti-LSR antibody 26-2
- Kd [2]: 4.04 nM

B9: SEQ ID NO 5 (scFv phage antibody clone, anti-LSR antibody 1-25 sequence) (scFv)
scFv: AVTLDESGGGLQTPGGALSLVCKASGFDFSSYEMQWVRQAPGKGLEWVTGISGSGSSTRYGSAVKGRATISRDNGQSTVRLQLNNLRAEDTGTYYCARGSTIDAWGHGTEVTVSTGGGGSGGGGSGGGGSDVALTQPASVSANPGETVKITCSGGSSYAGSYYYGWYQQKSPGSAPVTVIYYNDQRPSDIPSRFSGSTSGSTATLTITGVQVEDEAVYICGTYEDSGGVFGAGTTLTV
notes: the phage coat protein fusion is not described; also called 1-25 scFv
- binding result [1]: binds
